Measured values reported in patent publication US20140341938A1.

Target: SIINFEKL:K^b complex (SIINFEKL complexed to H-2K^b) on LK^b cells (murine) (UniProt P01901)
Assay: cell-based or functional assay

UniProt P01901, sequence (P01901 22-369, one chain of several): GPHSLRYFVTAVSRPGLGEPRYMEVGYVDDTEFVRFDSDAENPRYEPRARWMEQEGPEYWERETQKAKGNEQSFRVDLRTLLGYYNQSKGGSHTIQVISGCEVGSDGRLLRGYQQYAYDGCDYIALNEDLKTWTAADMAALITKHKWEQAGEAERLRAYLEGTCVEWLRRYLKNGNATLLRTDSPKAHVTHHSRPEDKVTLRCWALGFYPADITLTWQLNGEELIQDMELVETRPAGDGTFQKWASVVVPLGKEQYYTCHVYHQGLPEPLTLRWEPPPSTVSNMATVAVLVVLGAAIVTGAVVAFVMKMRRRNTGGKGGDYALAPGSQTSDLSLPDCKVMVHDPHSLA

β-galactosidase measured with a luminescent substrate after overnight co-incubation of SIINFEKL-pulsed LK^b cells with B3Z; limit of detection given as the peptide pulse concentration: 5 ng/mL
Sequence: T cell receptor of the SIINFEKL:Kb-specific T hybridoma B3Z (TCR)
